Patent US20230312672A1 (published 2023)

Biological target: T1, CD20 peptide on HLA-A*02:01 (human)
T1 peptide: SLFLGILSV
Experiment: multimer staining

B1: TCR 79B2 (TCR, V domains shown)
Valpha: GEQVEQLPSILRVQEGSSASINCSYEDSASNYFPWYKQEPGENPKLIIDIRSNMERKQIQELIVLLDKKAKRFSLHITDTQPGDSAMYFCAASANTGANTGKLTFGHGTILRVHP
Vbeta: ETAVFQTPNYHVTQVGNEVSFNCKQTLGHDTMYWYKQDSKKLLKIMFSYNNKQLIVNETVPRRFSPQSSDKAHLNLRIKSVEPEDSAVYLCASSWGLGSYEQYFGPGTRLTVL
binding result: recognises
